# Measurements reported in patent US20040002075A1, “Heat-resistant cysteine synthase” (priority 2001, published 2004).
# B1: cysteine synthase: Heat-resistant cysteine synthase (O-acetylserine sulfhydrylase) of hyperthermophilic archaea Aeropyrum pernix K1, SEQ ID NO: 2, produced recombinantly in E. coli (protein)
# chain: VALADISGYLDVLDSVRGFSYLENAREVLRSGEARCLGNPRSEPEYVKALYVIGASRIPVGDGCSHTLEELGVFDISVPGEMVFPSPLDFFERGKPTPLVRSRLQLPNGVRVWLKLEWYNPFSLSVKDRPAVEIISRLSRRVEKGSLVADATSSNFGVALSAVARLYGYRARVYLPGAAEEFGKLLPRLLGAQVIVDPEAPSTVHLLPRVMKDSKNEGFVHVNQFYNDANFEAHMRGTAREIFVQSRRGGLALRGVAGSLGTSGHMSAAAFYLQSVDPSIRAVLVQPAQGDSIPGIRRVETGMLWINMLDISYTLAEVTLEEAMEAVVEVARSDGLVIGPSGGAAVKALAKKAAEGDLEPGDYVVVVPDTGFKYLSLVQNALEGAGDSV
# modifications: Aeropyrum pernix K1
# Assays:
# [1] = Heat resistance, residual activity after incubation, assaying method (1); type: physicochemical; details: for residual activity: 0.3 mg/mL enzyme in 50 mM potassium phosphate buffer (pH 6.7), FIG. 3
# Experimental: The optimal pH was determined by the following assaying method (1) for cysteine synthase activity. Assaying Method of Cysteine Synthase Activity (1) Four enzyme solution samples were prepared by adding cysteine synthase to 50 mM potassium phosphate buffer (pH 6.7) containing 1 mM EDTA and 0.2 mM pyridoxal 5′-phosphate so as to obtain an enzyme concentration of 0.3 mg/mL. The samples were incubated for 6 hours at 4° C., 80° C., and 100° C., respectively, to assay residual activity.
# [2] = Optimal temperature, cysteine synthase activity assaying method (2); type: biochemical; details: 4 minutes reaction, FIG. 2
# Experimental: The optimal temperature was determined by the following assaying method (2) for cysteine synthase activity. Assaying Method of Cysteine Synthase Activity (2) Purified enzyme was added to 50 mM potassium phosphate buffer (pH 7.5 or 7.0) containing 20 mM O-acetylserine and 2 mM sodium sulfide as substrates, and 0.2 mM pyridoxal 5′-phosphate so as to establish an enzyme concentration of 0.8 μg/mL, the reaction was brought about for 4 minutes, and the amount of cysteine synthesized was determined by the ninhydrin method to assay the enzyme activity.
molecule,measurement,setting,value
B1,residual activity,[1]; after 6 hours of incubation at 80° C.,about 97%
same,residual activity,[1]; after 6 hours of incubation at 100° C.,about 85%
same,activity of the enzyme after heat-treatment,[1]; heat-treatment at 80° C. for 6 hours,substantially unimpaired
same,optimal temperature,[2]; 50 mM potassium phosphate buffer pH 7.0,about 60 °C
same,optimal temperature,[2]; 50 mM potassium phosphate buffer pH 7.5,about 50 °C
